Experimental data as given in PMC9169624.

How the values were obtained:
[1] = target: HELB (DNA helicase B);Human RPA (hRPA) (Homo sapiens;Homo sapiens, UniProt Q8NG08;P27694;P15927;P35244 1-1087;1-616;1-270;1-121, |); test: EMSA; HELB supershifts the human RPA-DNA complex; EMSA: 2.5 nM DNA (5 nM in Fig. S1F); PIFE: 2 nM DNA for Kd; buffer, salt, pH and temperature not in the supplied material; optical tweezers at room temperature; details: protein: recombinant;recombinant; copies: 1;1;1;1; label: 5'-Cy5; single strand
[2] = target: Human RPA (hRPA) (Homo sapiens, UniProt P27694;P15927;P35244 1-616;1-270;1-121); test: EMSA; human RPA alone; EMSA: 2.5 nM DNA (5 nM in Fig. S1F); PIFE: 2 nM DNA for Kd; buffer, salt, pH and temperature not in the supplied material; optical tweezers at room temperature; details: protein: recombinant; copies: 1;1;1; label: 5'-Cy5; single strand
[3] = target: HELB (DNA helicase B) (Homo sapiens, UniProt Q8NG08 1-1087); test: PIFE fluorescence; EMSA: 2.5 nM DNA (5 nM in Fig. S1F); PIFE: 2 nM DNA for Kd; buffer, salt, pH and temperature not in the supplied material; optical tweezers at room temperature; details: protein: recombinant; label: 3'-Cy3; single strand
HELB (DNA helicase B), sequence (Q8NG08 whole entry): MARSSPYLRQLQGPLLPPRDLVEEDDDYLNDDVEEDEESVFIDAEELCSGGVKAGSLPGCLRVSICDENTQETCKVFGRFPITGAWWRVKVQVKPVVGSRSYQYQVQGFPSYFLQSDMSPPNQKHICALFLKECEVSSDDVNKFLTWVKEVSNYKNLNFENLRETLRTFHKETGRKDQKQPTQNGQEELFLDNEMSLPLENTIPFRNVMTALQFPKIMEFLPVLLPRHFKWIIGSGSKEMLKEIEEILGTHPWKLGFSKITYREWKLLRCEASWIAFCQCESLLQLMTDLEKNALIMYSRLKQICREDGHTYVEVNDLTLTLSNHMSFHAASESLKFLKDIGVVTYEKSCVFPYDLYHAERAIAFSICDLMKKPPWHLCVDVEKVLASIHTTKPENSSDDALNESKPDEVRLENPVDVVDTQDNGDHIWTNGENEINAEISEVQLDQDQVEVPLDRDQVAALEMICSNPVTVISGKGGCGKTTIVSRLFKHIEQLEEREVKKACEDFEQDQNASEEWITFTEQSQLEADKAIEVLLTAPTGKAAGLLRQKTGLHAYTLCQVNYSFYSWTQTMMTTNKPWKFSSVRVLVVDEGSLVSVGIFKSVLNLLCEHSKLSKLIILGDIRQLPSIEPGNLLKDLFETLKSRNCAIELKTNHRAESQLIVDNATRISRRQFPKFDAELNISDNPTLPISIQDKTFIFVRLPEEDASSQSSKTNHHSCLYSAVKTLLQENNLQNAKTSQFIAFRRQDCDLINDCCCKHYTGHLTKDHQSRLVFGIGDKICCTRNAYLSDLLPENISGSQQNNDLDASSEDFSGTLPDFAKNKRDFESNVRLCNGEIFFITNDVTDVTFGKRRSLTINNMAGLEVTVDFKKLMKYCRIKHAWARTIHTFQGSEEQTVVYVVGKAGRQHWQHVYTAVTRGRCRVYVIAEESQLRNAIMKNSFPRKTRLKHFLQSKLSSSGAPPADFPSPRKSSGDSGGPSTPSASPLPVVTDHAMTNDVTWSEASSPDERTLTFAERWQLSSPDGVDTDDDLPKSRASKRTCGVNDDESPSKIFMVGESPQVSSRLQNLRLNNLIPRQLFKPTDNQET

Human RPA (hRPA), sequence (P27694 whole entry, chain 1 of 3): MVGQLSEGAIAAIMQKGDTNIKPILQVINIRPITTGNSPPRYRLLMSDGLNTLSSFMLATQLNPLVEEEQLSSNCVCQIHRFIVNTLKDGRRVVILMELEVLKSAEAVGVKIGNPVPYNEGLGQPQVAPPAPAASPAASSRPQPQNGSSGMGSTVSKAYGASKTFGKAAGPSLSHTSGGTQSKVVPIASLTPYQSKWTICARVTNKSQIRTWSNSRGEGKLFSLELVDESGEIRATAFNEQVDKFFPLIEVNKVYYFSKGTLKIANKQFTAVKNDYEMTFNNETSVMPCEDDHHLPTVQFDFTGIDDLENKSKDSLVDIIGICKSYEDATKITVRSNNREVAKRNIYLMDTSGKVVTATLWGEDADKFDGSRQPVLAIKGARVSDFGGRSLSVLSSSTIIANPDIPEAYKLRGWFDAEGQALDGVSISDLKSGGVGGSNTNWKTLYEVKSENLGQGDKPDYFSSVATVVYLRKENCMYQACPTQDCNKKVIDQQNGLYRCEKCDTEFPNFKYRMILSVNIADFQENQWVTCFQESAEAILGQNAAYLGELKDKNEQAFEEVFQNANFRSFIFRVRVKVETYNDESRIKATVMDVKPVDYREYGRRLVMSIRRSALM
Human RPA (hRPA), sequence (P15927 whole entry, chain 2 of 3): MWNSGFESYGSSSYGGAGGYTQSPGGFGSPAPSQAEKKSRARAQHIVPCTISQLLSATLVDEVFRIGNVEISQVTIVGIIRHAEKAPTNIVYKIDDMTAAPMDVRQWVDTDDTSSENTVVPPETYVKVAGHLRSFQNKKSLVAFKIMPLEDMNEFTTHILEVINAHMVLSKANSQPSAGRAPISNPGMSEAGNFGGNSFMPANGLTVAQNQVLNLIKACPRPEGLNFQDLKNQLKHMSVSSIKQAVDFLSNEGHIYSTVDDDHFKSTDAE
Human RPA (hRPA), sequence (P35244 whole entry, chain 3 of 3): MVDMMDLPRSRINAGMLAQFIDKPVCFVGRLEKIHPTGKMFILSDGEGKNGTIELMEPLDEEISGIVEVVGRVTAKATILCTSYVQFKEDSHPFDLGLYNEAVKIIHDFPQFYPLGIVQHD
HELB (DNA helicase B);Human RPA (hRPA), sequence (Q8NG08 whole entry, chain 1 of 4): as the sequence (Q8NG08 whole entry) above
HELB (DNA helicase B);Human RPA (hRPA), sequence (P27694 whole entry, chain 2 of 4): as the sequence (P27694 whole entry, chain 1 of 3) above
HELB (DNA helicase B);Human RPA (hRPA), sequence (P15927 whole entry, chain 3 of 4): as the sequence (P15927 whole entry, chain 2 of 3) above
HELB (DNA helicase B);Human RPA (hRPA), sequence (P35244 whole entry, chain 4 of 4): as the sequence (P35244 whole entry, chain 3 of 3) above

Binder	binding result [1]	binding result [2]	Kd [3] [nM]
GCTTGCTAGGACGGATCGCTCGAGG (ssDNA) [EMSA 25mer]	binds	binds	–
TTTTTTTTTTTTTTTTTTTTTTTTTTTTTT (ssDNA) [poly(dT) 30mer]	–	–	~5
